The results in this text go back to publication PMC8231724, “A Glycolipid Glycosyltransferase with Broad Substrate Specificity from the Marine Bacterium “Candidatus Pelagibacter sp.” Strain HTCC7211” (Applied and Environmental Microbiology, 2021).

Common to all, as to assay: LC-MS of glycolipid product, Hanes-Woolf plot
Format in all cases: biochemical, Candidatus Pelagibacter sp. HTCC7211
What all share (details): acceptor C16:0/C18:1 DAG, no added Mg2+, Tricine-KOH pH 8.5, 35 °C, 2 mM DTT

Substrate in data set [1]: O=C(O)[C@H]1O[C@H](OP(=O)(O)OP(=O)(O)OC[C@H]2O[C@@H](n3ccc(=O)[nH]c3=O)[C@H](O)[C@@H]2O)[C@H](O)[C@@H](O)[C@@H]1O
An excerpt:
(§1) LC-MS of glycolipid product, Hanes-Woolf plot on GTcp

Substrate in data set [2]: O=c1ccn([C@@H]2O[C@H](COP(=O)(O)OP(=O)(O)O[C@H]3O[C@H](CO)[C@H](O)[C@H](O)[C@H]3O)[C@@H](O)[C@H]2O)c(=O)[nH]1
Description: as §1

Substrate in data set [3]: O=c1ccn([C@@H]2O[C@H](CO[P@@](=O)(O)O[P@@](=O)(O)O[C@H]3O[C@H](CO)[C@@H](O)[C@H](O)[C@H]3O)[C@@H](O)[C@H]2O)c(=O)[nH]1
Description: as §1

B1: GTcp (Candidatus Pelagibacter sp. HTCC7211) (protein)
chain: MKILIVTDAYYPQVNGVVRTLHETGEILKSQGHTIEYITPQQFLTVPMPKYNEIRLSLNVWPRVSNLINSIKPDAIHIATEGPLGFMARRHCIKKGLKFTTSFHTRFDKYIKLYMPIIPAKWSEKFLCNFHNKAERILVTTESMREELIALGVDNNKMVTWTRGGNHGAFKNPVKRDLPYKRPIWIYVGRVAVEKNIKAFLDLDLEGTKVIIGKGPNLNKLKKKYPNDYFLGEKTNGELASHFASSDVFVFPSKTDTFGIVVLESLSCGTPVAAYPVPGPKDILGGSKIDTLDQDLKTSALKALKVNREDCLEFAKKYSWEETARIFYNNISPN
notes: full length, 334 aa (1,005 bp), codon-optimised synthetic gene in pET22b, His-tagged, E. coli BL21-CodonPlus(DE3)-RIL, Ni-NTA and Superdex 200, 38 kDa monomer, about 70 kDa dimer
For B1, the Km (as a rule, the concentration of substrate that gives half-maximal velocity) in data set [1] was 68 ± 0.5 µM; in data set [2], 32 ± 0.4 µM; in data set [3], 82 ± 0.3 µM. In addition, the catalytic constant (kcat) (in general, the number of substrate molecules converted per active site and unit of time at saturation) in data set [1] was determined as 0.0675 ± 0.00167 s⁻¹; in data set [2], 0.0172 ± 0.005 s⁻¹; in data set [3], 0.0975 ± 0.00667 s⁻¹. The catalytic efficiency (kcat/Km) (as a rule, the second-order rate constant that governs catalysis at low substrate concentration) in data set [1] came out at 993 ± 60 M⁻¹ s⁻¹; in data set [2], 537 ± 48.3 M⁻¹ s⁻¹; in data set [3], 1190 ± 45 M⁻¹ s⁻¹.
